Assay: soluble fraction after stress (log2 fold change); higher = more stays soluble; pooled small domains, quantitative proteomics
Details: stress: pH 4
Outline: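 Pooled custom libraries of small protein domains were subjected to pH 4 and measured by high-throughput quantitative proteomics. The log2 fold change in soluble amount per domain is reported, higher values meaning more remained soluble. This is used as a measure of aggregation propensity.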

Point of comparison: “HMETVSFNPDIAVIPDYRHVVILGETTKTIANKYDIPVDILKAANPGLGNNVTKGDRLRVPDKTKLQ”, “soluble fraction (log2)” value -0.0151. Against it:
- HMEQPLSLKLANNAFSRFWGNANPAEKDTQPNNSDIAKWVIEQSGGKITQTMADKIAQIIRPEWAA — higher, 0.25
- HMEQSGDELKTWVDQAIAAYPEKVKEYQQGKKGLLALFIGEVMKRSKGTADPKKVNQLVTEALS — within 0.2 log units, -0.211
- HMEQTMNDMLKLVDLLPQNQQDIVRMRFYENMSFKEIAESNQISINTALGRMRYAILNLRKYAAERNL — lower, -1.57
- HMEQVLDEEIIKSAVQKVIKDNPSAVSDYKAGKKTAFQFLIGKAMAELQGKGHPGKISELLEKE — higher, 0.257
- HMEQVQQIPIEELFPFKEHPFKVLDDEAMQRTVESVAQYGVLAPLIARPRPEGGYEIISGHRRQHAAELYR — lower, -0.445
- HMEQWVSIEVEPGIRLDVALTEATQKSRSFIQNLIAEQRVLVNGQPKKANYKVRPGDHVELNYPEPT — lower, -0.415
- HMEREKTYLMPDLIGRKAERVVPRLQASGFKVEDIRHVYYPGLEKGVIVRQSPPGGYPIQKRNLINLEVS — within 0.2 log units, 0.0984
- HMERLKKYLDDVRTFLPGTNPKKVDEILREIESHVLERAEREHGEVNDNAVAMSIKEYGSPEEVAARYYEG — lower, -0.29
- HMERLSNQVYAILKEMIADYRFNPGARINVEQIAKEVGASRTPVWEAVHRLVQEGLLENIPNRGVFML — lower, -1.11
- HMERNAEDFAAKYQEIYQDMFRFALYTLKNRQEAEDVVSETVLDAWKGIEGLKNESAFSAWMFRILVNK — lower, -0.325
- HMESADEESNALMYDGLLAMRGKRYEVALEFFDALVKHDPDFAEGWNKRATVLYLLGRYERSIADIKQVLA — within 0.2 log units, -0.0176
- HMESAEQTGEELAARVNVLQTVSQALARELGREAAVEELADKMKMTVDEVKDIMKMAMDAMSM — lower, -1.59
- HMESAESRVDLIGMIGEAITDLRPAGTAQFGEERIDVVSESEWITEGSTVKVVSAEGYRHVVRVME — lower, -1.01
- HMESENANVNRAMLTGIASMHAGQLETALNKFNEVIQLAPDFAEGWNKRATIFYLMKKFDRSVNDIAQTLK — lower, -0.741
- HMESFGVAIKRLREAQGWTRADFLRQLGKTGYYMHATTLKRIEEGEQIAKVHEAVIISRLFGVTVEEMG — lower, -1.3
- HMESGFEAVREVARHGSFANAAKALGVSGPAVSRQVKSLEERLGLVFFHRTTRMVTLTEAGQQLVDTLD — within 0.2 log units, -0.211
- HMESGNLIFTNAPIADVVNAIETRYGKKLQASNQTSDLQFTGIFKNTDEFSTVVKTIEIALGLQFEV — lower, -1.37
- HMESIEAGTFELDNKTSIDISEDEANLLNKMFEELTETNSKDMYGVMVADEAGFNEILEFAKENL — lower, -0.551
- HMESNWLTYAKRIQSIADTGMTFAVDDFDKERYQELADISSKMLADLSNIPIGRIENLLGPLGQ — lower, -1.26
- HMESPVNTLPEDQRAWYKALPPELSTKTAVEAGAGVGVSERTVKRLLSNQTFFINLQRGNYRKRH — higher, 0.314
- HMESRMTYLQKTKLATENLDAKLIDHQQWVAEVLGEDYRGVYSDEYLRRAAKVFAIFVNNLDD — lower, -1.41
- HMESRRVTLLLPYDKAGIADTLRREAAVLSLEYGEDGVTVEAVVKPELWGLVREYVQNDNPK — lower, -0.319
- HMESVTETFLTNLINRYIADKAGYIISYPSEYRIEVLYHGGQVLDYENLRKSINTYIPAHIGYKLVTI — within 0.2 log units, -0.158
- HMESYDSEIKEVLDLAGKGRWEEAQTKADALREMAPNNSLVERLHGWVLQAAHQRREQALENDIRE — within 0.2 log units, 0.101
- HMESYTEEMLEKMSVSKLRTIARELQVDNMTREQIRFGKKTELIQNILEFTGREIENMQLYDK — lower, -0.357
- HMESYWVVLRPMAAGTQIGANDLGYRSVALGAAAKNYLAASTNPIGSITRRRLVAGELLQGSSLTDDARA — higher, 0.185
- HMETADREILLREIREIINERVDYNKDITDDEMKELVMNTVFERSRQQYMSIQDKQEIIQAIFNSMR — lower, -1.02
- HMETAESLLRRLIMLEDPAMQNAMYVLAVMLERGKQLVERAAKPHESGGILRVYEHKKSGDTFVVLDPR — lower, -1.05
- HMETDGGDLTPRERDVLSLIGRGLRNAEAASALGLSEHTIAGHIKSVYSKLGISTRAEAALLASRLGL — lower, -0.261
- HMETGGLAQEAERELALLQEQIAHHEALYRKGTPEISDGAFDELFDRYQELADSLGVPADERIDRA — lower, -0.836
- HMETIHEMVNRLSSEGFIKNEDGIWYLRDRRGDGTKWLKNPFFESTGEKDAFALIDHLKVNDELLSKLRK — lower, -0.433
- HMETINERVNSIIEREGHTVATFAKKIGVPWTTIKNIVSGRNAPSYDIMVKIINAVDWVDANYLVMG — lower, -1.16
- HMETKIKFQIQTLDELNIRKVADWDAKAITTVKKGQILDVVDTVAAKNGSTPMYRLESGLYITASPKYVKK — higher, 0.22
- HMETKPTELMLDVHKLRIGMFVYLDLGWMDHPFPLNRFKISTNAQIEQIKGLRLKQVKVMTALSDPASLL — lower, -0.637
- HMETKVIVPKVTGMNSKSAINYLSARGLKYKAVPADSGKSFHVVDQYPKSGTKVSPHSTVYLYS — higher, 0.386
- HMETLKEVPNLKGQQQEVAKQLLINAGLGVGKINIIEDSTIADGEVVTQSILPNTKVKKDTYVGFTVNKAP — higher, 0.22
- HMETLKLRDSGKEVQSLQELLQRQGLSAPMNGIFDEATKSSVIAFQKANGLDADGIVGYKSWETLFTAG — lower, -0.349
- HMETMSGTVKWFNTQKGYGFITGDDGAEYFAHQTQIKMDGFRTLDAGDIVEFDVRSEEKGLAAVNIVP — lower, -0.707
- HMETPDLTQLNPILDEYRGQKGAVIPVLQKAQKIYGFLPPEVLRRIAAGMRVPLSKIYGVATFYSQFY — within 0.2 log units, -0.0265
- HMETQAGELQDAIRDAIAALPPRTREVFLMSRERNLRYGEIAEALGISVKAVEANMSRALRQLREKLSPFL — within 0.2 log units, 0.108
- HMETVMYLRQIKRPQGIYLAIQESYYDSSKKQSRTRTIESIGYLDNLRKEYEDPIAFFSQKAAAMTSEKKK — within 0.2 log units, -0.177
- HMETVQTGTVKVSNSLNVRSGAGTNYSVLGSLSNGAKVEIVGTSGSWYKIKYGSGYGYVSKDYVTVS — lower, -0.28
- HMETYHIQMKGDPSKGIVGFSQLDMVIDKIKRLETEKGIAPYELEVLDGDTMEKYSGEEFLTMHE — lower, -1.21
- HMETYSGVERAAILVMYLERTLAKALLDHMNDEEVRRVGMAMASIDRVEGPDIERIVGDFVRELYEVS — lower, -0.857
- HMETYTVPEVLGLTPEQAAQLPEVKDIFTLDVKEEGDFSDKPVGTIVRQSPTEGEHRKGDNLVIEVWLSV — lower, -0.269
- HMEVADAAQRKILQALQVQPLTVEQLSQELRTDTGDLLVSLSMMEITGLIRREAGNTFLAVFAPK — lower, -0.598
- HMEVEIPSREALLGLVQKHLKPVSFDEFVSHFKLGDERQQVGIKRRLRAMERDGQLVYTKANSYGLPDRM — within 0.2 log units, -0.197
- HMEVGVSGTVFNTDSLNVRKGPGTNFDTVTSLKRGSVVEVFEQSAVDGTVWGRIANGWVNMQYVSL — within 0.2 log units, -0.0681
- HMEVKEVDYSAFMTMTEENSISKVEIEENQILFKKKGDDQTTYKTARMDDPALITRLHDQGVDFTGQ — within 0.2 log units, 0.0244
- HMEVKRANRKERFLEALPYQFSRQDYLNIADKNKIPHKTAEGYITKFVDAGLIHREAHNNYTNPTKA — within 0.2 log units, 0.045
- HMEVLPLHQVKLKYAEADTILIALKSAQSMLSPRGQLLADNRSQQIFVYDDEAHTATLIEAIKHLDQPL — lower, -0.32
- HMEVLTEPKVQSIDTHGEKSTFVIESPNPLQPDEIAKLVGADGISVRVDRTWLKSHRDSTWTYSILTVS — within 0.2 log units, 0.163
- HMEVPFRNAAIFKTRSGDYAIRASYDGVDLGIKPIEKSTARTYFQLTDVKDKESFLNMTARNQYESEIAGI — within 0.2 log units, 0.153
- HMEVPNLIGMTDKDLQRTYFQLPIEAAGDGSVVIKQLPEPGEKVKEGSVIRVLLG — within 0.2 log units, 0.00722
- HMEVPQKTLEILEPWRGRKGFLIPVLQAVQHEFGYVPKEAIETVSREMKMPTAEIYGVVTFYAQFH — lower, -0.513
- HMEVSEGEIREKVESVFSSNPRQAYNYKQISKKLNINDKSERQIVWDVLRKLAGSGKIQEVEHGRFRARAE — within 0.2 log units, -0.0385
- HMEVSKETFPAYVAVDSLPVYKSASTSSSKVTTIDFGREVTVVETRGGWAKIQYGSYKGFAEIEGMSKN — within 0.2 log units, -0.0269
- HMEVVELTDDEKMILATLHDGPVEIGHIKQVVGLSGKKWDAATKSLRQKGLINVVLENEQKLMVK — within 0.2 log units, -0.0453
- HMEWGEADFVRLDEALATLRTLSPRQAEVVDLRFFSELSLEETAATLGLSLATVKRDWSVARLYLQRALS — lower, -0.815
- HMEWTVEKQAAATLNAWMRKNSEMTSEKKVAVAAGIGPATVNRIMKAEVSTTIGVLSSLARAFGHEAYEMI — within 0.2 log units, 0.114
- HMEYDEVVVVKQIIPKGKNTMVAHLKHLKEHGETGFLKQAVGYLKLHASEIPFSVDAVISEVH — within 0.2 log units, -0.0529
- HMEYDYKVIDFFKDYYSYLNYQEIEPNILDKQLTTLTEEESAKIAGIMKLDYEDFTRGIEIVTGS — lower, -1.41
- HMEYLIENYGSVINQARMKKGMTQEQLSSKTGVSQAYIRSIESQNMKPTDAVARKIEFELGIKLFE — within 0.2 log units, 0.147
- HMEYSKSIKRLREDKNLTVEELAKRLSLDVEEIQKAEDGEDVDQKTLEAIARYFGVQYDSLVEGTAKSK — lower, -0.258
- HMEYTTEELDSLLKLYFQTHESINRNEFEQLTSYTRTTASRRLKTLVQAGKLQNIGLYRFPVYKPTEGNF — within 0.2 log units, -0.037
- HMEYYWHQLKGLEVVNTRGESLGRVRRLLETGANDVLVLEGEQERLIPYVPDTIKQVDLAKGLIEVAWDRD — lower, -1.23
- HMFAADIGVGIVDADSLRVRSEPSTGAPIVTSLLRGTQVTVQEKLDGWYRITYNDVSGFVSAEYLIFTADE — lower, -0.297
- HMFAGEWKQDASGWWYQNDDGSFTRNGWQNISGKQYYFNENGYMLHDTTTPDGKQVGSDGSLV — lower, -0.389
- HMFAKVEGITGDILDKLQQQRGFLALSDKSSPEAIYDTFGVSKKVFKQAIGTLFKQQKISIEAEGIRLV — within 0.2 log units, -0.0102
- HMFASSADGVEGLKTNPIFASTKEKSDAGKLLYTRYLAIGIFRMLELAKATDPKALEALVEAGG — within 0.2 log units, 0.147
- HMFDDEELDTFAGRQSDSYDQQEVEQFSDVLHTMRQDEVQAWWRSLTLRGISLPDELKDEVIML — lower, -1.6
- HMFDDLSTNLRDLAHNYIEKYSPSKQQLKVFLLKKYLMKFKGSKTKKEISEIIDKIISNLEENKYLNDEL — within 0.2 log units, 0.179
- HMFDFMVLGQAIKKARESKEMTREQLAEILDVAPRHIQSIENEGQYPSFPLFIRLVTMFNISVDQY — lower, -1.4
- HMFDGNIKIVEDAFSVTIVARGTEVKISGDPENVYLASKTVEGLLTLIDKGEAITDQRVHYVIGLVREG — lower, -1.71
